Legend:
FITC-casein [1] = assay: fluorescence polarization, 6 nM FITC-casein with 0-5 uM Hsp104, 2 mM ATPgS, 25 C
FITC-casein [2] = assay: cell-based or functional assay

Substance | Kd (FITC-casein [1]) | Km of FITC-casein degradation (translocation into ClpP), initial rates against FITC-casein concentration (FITC-casein [2])
Hsp104A503V (from UniProt P31539 1-908) | 80 nM | 
HAPWT (from UniProt P31539 1-908) |  | 2.88 µM
Hsp104WT (from UniProt P31539 1-908) | 65 nM | 
HAPA503V (from UniProt P31539 1-908) |  | 1.29 µM

From patent publication US20150240222A1
